Test results from publication PMC8172134.

Target: SARS-CoV-2 spike prefusion stabilized ectodomain trimer (SARS-CoV-2) (UniProt P0DTC2)
Experiment: cryo-EM structure

47D11 Fab fragment
stoichiometry N (Fab per spike trimer): 2
